B1: human VASH1 core (VASH1c) region (amino acids 56–310) (domain or fragment)
chain: not shown
notes: vasohibin-1 (VASH1), human, core region, amino acids 56-310; the final model holds amino acids 56-304 (chain A); cut with TEV protease before crystallisation; Residues of the TEV sites may be left at the ends; also called vasohibin-1; source: E. coli One Shot BL21 Star (DE3) pLysS, purified (HisTrap FF, SP Sepharose, TEV cleavage, SP Sepharose, Superdex 200); not shown: MBP, N-terminal, cleaved; …

Tests used:
[1] = target: the molecule itself; experiment: crystal structure; purified VASH1c–SVBP complex (17.7 mg/ml), sitting-drop vapor diffusion at 20°C, 0.16 M ammonium sulfate, 0.08 M sodium acetate pH 4.6, 20% PEG 4000, 20% glycerol; space group P6(1)22, 2.3 Å; heterotetramer formed by a crystallographic twofold axis
[2] = target: B1; experiment: as above; details: both partners purified

| Binder | binding result [1] | binding result [2] |
| --- | --- | --- |
| B1 | binds | – |
| human small vasohibin-binding protein (SVBP) (amino acids 2–66) (natural protein, UniProt Q8N300 2-66, looked up, the final model holds amino acids 26-53 (chain B); Expressed at the C-terminal end of the fusion MBP-His6-5xTEV-VASH1(56-310)-2xTEV-SVBP(2-66) and set free by TEV protease; Residues of the TEV site may be left at its N-terminus; source: E. coli One Shot BL21 Star (DE3) pLysS, purified (HisTrap FF, SP Sepharose, TEV cleavage, SP Sepharose, Superdex 200)) DPPARKEKTKVKESVSRVEKAKQKSAQQELKQRQRAEIYALNRVMTELEQQQFDEFCKQMQPPGE | – | binds |

Source: PMC7543661, “The crystal structure of the tetrameric human vasohibin-1–SVBP complex reveals a variable arm region within the structural core” (Acta Crystallographica. Section D, Structural Biology, 2020)
